Substitutions are numbered along the chain they refer to. Each block holds one binder with its values, some of them ahead of it.
Columns and labels:
[1] = target: T1, human EGFR on tumor cells (human, UniProt P00533 25-1210); assay: cell-based or functional assay
[2] = target: T1, human EGFR on tumor cells; assay: cell-based or functional assay; remark: listed apart in the source
[3] = target: T2, keyhole limpet haemocyanin (KLH, Sigma, H8283) (keyhole limpet, UniProt Q10583 17-3414; Q10584 20-3421, limits assumed); assay: ELISA, KLH coated at 5 ug/mL, 100 nM antibody, anti-human IgG-HRP
T2 construct: Bought preparation coated on the plate in the polyspecificity ELISA
Procedure: (§1) (1) Antigen coating: cardiolipin (Sigma, cat. C0563), keyhole limpet haemocyanin (KLH, Sigma, H8283), LPS (Sigma, L6529), ssDNA (Sigma, D8899), dsDNA (Sigma, D4522) and Insulin (abs42019847) were plated at 50 μg/mL, 5 μg/mL, 10 μg/mL, 1 μg/mL, 1 μg/mL, g/mL, and 50 μL per well, and incubated at 4° C. overnight;
(§2) (4) 50 μl anti-human IgG-HRP conjugate (Sigma, AP113P, 1:8000 dilution) was added to each well; the plate was incubated for 1 h at room temperature and washed 6 times with 0.05% PBST;

[4] = target: T3, Insulin (abs42019847); assay: ELISA, insulin coated on the plate, 100 nM antibody, anti-human IgG-HRP
T3 construct: Coated on the plate in the polyspecificity ELISA
Procedure: as §1, §2

[5] = target: T4, human CD3ε/δ (ACRO systems, CDD-H52W1) (human, UniProt P07766 23-126; P04234 22-105); assay: BLI, antibody captured on AHC sensor, 30 C
T4 construct: bought recombinant heterodimer; also called human CD3 epsilon/delta; Human CD3ε/CD3δ

[6] = target: T5, recombinant tumor antigen human EGFR (ACRO systems, EGR-H5222) (human, UniProt P00533 25-645); assay: BLI, antibody captured on AHC sensor, 30 C
T5 construct: bought recombinant protein
Source text: (§3) After the chip captures the bispecific antibodies, it was allowed to bind and dissociate with different concentrations of analytes to obtain the KD value of the interaction. The experimental parameters are as follows: Baseline1: 60s, Loading: 240s, Baseline2: 180s, Association: 240s, Dissociation: 600s, Loading Response: 1.9-2.1 (nm), High sensitivity kinetics: 2 Hz. Kinetic constants were derived based on 1:1 Langmuir binding to obtain equilibrium dissociation constants (KD).

[7] = target: the molecule itself; assay: BLI self-interaction: antibody captured on AHQ anti-human Fc sensor, free sites blocked with human IgG, same antibody in solution
Procedure: The bispecific antibodies were diluted to 1 μM, and the proteins were coupled to the surface of the AHQ sensor chip in PBS, and the signal value was ˜0.8 nm. […] The experimental parameters are as follows: Baseline1: 60s, Loading: 180s, Loading response: 0.8 nm, Baseline2: 180s, Association: 240s, High sensitivity kinetics: 2 Hz.

[8] = target: T6, human HER2 on tumor cells (human, UniProt P04626 23-1255); assay: cell-based or functional assay
[9] = target: T6, human HER2 on tumor cells; assay: cell-based or functional assay; remark: listed apart in the source
[10] = target: T7, recombinant tumor antigen human HER2 (ERBB2, ACRO systems, HE2-H5212) (human, UniProt P04626 23-652); assay: BLI (Octet RED96e), antibody captured on AHC anti-human Fc sensor, HER2 as analyte, 30 C, 1:1 fit
T7 construct: Bought recombinant protein
Source text: as §3

[11] = target: T4, human CD3ε/δ (ACRO systems, CDD-H52W1); assay: serum-stability ELISA, Day 1 vs Day 0
Procedure: (§4) The samples to be tested were centrifuged at 4° C. at 12000 rpm for 30 minutes to remove the precipitate. 200 μl of each sample to be tested (0.5 mg/ml) was collected in a 1.5 ml Eppendorf tube. An equal volume of human serum (GEMINI, H2OYOOK) was added, mixed thoroughly, and the mixture was incubated in a 37° C. constant temperature CO₂ incubator. For a total of 10 days, 40 μl samples was aspirated every day and stored at −20° C.
(§5) Enzyme-linked immunosorbent assay (ELISA) was used to test the bispecific antibodies' binding to human CEA and human CD3 epsilon/delta antigen. The steps are as follows: the antigen human CD3ε/δ (ACRO systems, CDD-H52W1) and the recombinant tumor antigen human CEA (CEACAM-5/CD66e, ACRO systems, CE5-H5226) were diluted to 1 μg/ml with PBS, and then added to the 96-well plate at 100 μl per well. The wells were coated overnight at 4° C. After washing 3 times with 0.05% PBST, 200 μl 5% skimmed milk powder was added to each well and incubated at 37° C. for 2 h. After washing 3 times with 0.05% PBST, 100 μl primary antibody sample (10 μg/ml) was added to each well, and incubated at 37° C. for 2 h. After washing 3 times with 0.05% PBST, 100 μl (1:6000) diluted secondary antibody goat anti-human Fc-HRP (sigma, A2170) was added to each well, incubated at room temperature for 1 h. After washing 8 times with 0.05% PBST, 50 μl TMB color developing solution was added to each well, and incubated at room temperature for 10-15 min. 50 μl 1 mM HCl was added to each well to stop the color development. 450 nm Absorbance (OD) was read.
(§6) The binding of antibodies to antigen was calculated according to the following formula: Binding (%)=[(ODdayn−ODb)/(ODday0−ODb)]×100%. ODdayn: experimental well (the protein was stored in the serum for n days); ODday0: control well (the protein was not stored in the serum); ODb: blank well (no primary antibody added).

[12] = target: T4, human CD3ε/δ (ACRO systems, CDD-H52W1); assay: serum-stability ELISA, Day 2 vs Day 0
Procedure: as §4, §5, §6

[13] = target: T4, human CD3ε/δ (ACRO systems, CDD-H52W1); assay: serum-stability ELISA, Day 5 vs Day 0
Procedure: as §4, §5, §6

[14] = target: T4, human CD3ε/δ (ACRO systems, CDD-H52W1); assay: serum-stability ELISA, Day 6 vs Day 0
Procedure: as §4, §5, §6

[15] = target: T4, human CD3ε/δ (ACRO systems, CDD-H52W1); assay: serum-stability ELISA, Day 7 vs Day 0
Procedure: as §4, §5, §6

[16] = target: T4, human CD3ε/δ (ACRO systems, CDD-H52W1); assay: serum-stability ELISA, Day 9 vs Day 0
Procedure: as §4, §5, §6

[17] = target: T4, human CD3ε/δ (ACRO systems, CDD-H52W1); assay: serum-stability ELISA, Day 10 vs Day 0
Procedure: as §4, §5, §6

[18] = target: T4, human CD3ε/δ (ACRO systems, CDD-H52W1); assay: serum-stability ELISA, Day 0 (reference)

B1: EGFR-CD3 bispecific antibody 401 (bispecific antibody, human IgG4 S228P, kappa, F234A L235A)
heavy: EVKLLESGGGLVQPKGSLKLSCAASGFTFNTYAMNWVRQAPGKGLEWVARIRSKYNNYATYYADSVKDRFTISRDDSQSILYLQMNNLKTEDTAMYYCVRHGNFGNSYVSWFAYWGQGTLVTVSSASTKGPSVFPLAPCSRSTSESTAALGCLVKDYFPEPVTVSWNSGALTSGVHTFPAVLQSSGLYSLSSVVTVPSSSLGTKTYTCNVDHKPSNTKVDKRVESKYGPPCPPCPAPEAAGGPSVFLFPPKPKDTLMISRTPEVTCVVVDVSQEDPEVQFNWYVDGVEVHNAKTKPREEQFNSTYRVVSVLTVLHQDWLNGKEYKCKVSNKGLPSSIEKTISKAKGQPREPQVYTLPPCQEEMTKNQVSLWCLVKGFYPSDIAVEWESNGQPENNYKTTPPVLDSDGSFFLYSRLTVDKSRWQEGNVFSCSVMHEALHNHYTQKSLSLSL
chain: QVQLQESGGGSVQAGGSLKLSCAASGRGFSRYAMGWFRQAPGQDREFVATISWTNSTDYADSVKGRFAISRDNAKNTAYLQMNSLKPEDTAVYYCAADKWASSTRSIDYDYWGQGIQVTVSSESKYGPPCPPCPAPEAAGGPSVFLFPPKPKDTLMISRTPEVTCVVVDVSQEDPEVQFNWYVDGVEVHNAKTKPREEQFNSTYRVVSVLTVLHQDWLNGKEYKCKVSNKGLPSSIEKTISKAKGQPREPQVCTLPPSQEEMTKNQVSLSCAVKGFYPSDIAVEWESNGQPENNYKTTPPVLDSDGSFFLVSRLTVDKSRWQEGNVFSCSVMHEALHNRFTQKSLSLSL
light: QAVVTQESALTTSPGETVTLTCRSSTGAVTTSNYANWVQEKPDHLFTGLIGGTNKRAPGVPARFSGSLIGDKAALTITGAQTEDEAIYFCALWYSNLWVFGGGTKVEIKRTVAAPSVFIFPPSDEQLKSGTASVVCLLNNFYPREAKVQWKVDNALQSGNSQESVTEQDSKDSTYSLSSTLTLSKADYEKHKVYACEVTHQGLSSPVTKSFNRGEC
EC50 of tumor cell killing, MDA-MB-468 cells with human PBMC (E:T 10:1, 3 days, CCK8) [1]: 0.0208 pM
EC50 of tumor cell killing, NCI-H1573 cells with human PBMC (E:T 10:1, 3 days, CCK8) [1]: 5.83 pM
EC50 of tumor cell killing, NCI-H1650 cells with human PBMC (E:T 10:1, 3 days, CCK8) [1]: 98.6 pM
EC50 of tumor cell killing, NCI-H2228 cells with human PBMC (E:T 10:1, 3 days, CCK8) [1]: 114 pM
EC50 of tumor cell killing, SK-OV-3 cells with human PBMC (E:T 10:1, 3 days, CCK8) [1]: 11.3 pM
EC50 of tumor cell killing, MCF-7 cells with human PBMC (E:T 10:1, 3 days, CCK8) [2]: 206 pM
EC50 of tumor cell killing, N87 cells with human PBMC (E:T 10:1, 3 days, CCK8) [2]: 1310 pM
EC50 of tumor cell killing, NCI-H157 cells with human PBMC (E:T 10:1, 3 days, CCK8) [2]: 10000 pM
EC50 of tumor cell killing, NCI-H441 cells with human PBMC (E:T 10:1, 3 days, CCK8) [2]: 5.38 pM
Absorbance value (450 nm, polyspecificity ELISA) [3]: 0.96
Absorbance value (450 nm, polyspecificity ELISA) [4]: 1.01

B2: EGFR-CD3 bispecific antibody 401 (bispecific antibody, human IgG4 S228P, kappa, F234A L235A)
heavy: B1 heavy
chain: B1 chain
light: B1 light
notes: VHH-hole chain assembled from VHH and hole-Fc with hinge
Kd [5]: 2710 pM
koff [5]: 0.000491 s⁻¹
kon [5]: 181000 M⁻¹ s⁻¹
Kd [6]: 2070 pM
koff [6]: 0.00201 s⁻¹
kon [6]: 969000 M⁻¹ s⁻¹

B6: 312 (TA7), configuration of FIG. 1X (bispecific antibody)
heavy: EVQLVQSGAEVKKPGASVKVSCKASGFTFTSYYIHWVRQAPGQGLEWIGWIYPENDNTKYNEKFKDRVTITADTSTSTAYLELSSLRSEDTAVYYCARDGYSRYYFDYWGQGTLVTVSSASTKGPSVFPLAPCSRSTSESTAALGCLVKDYFPEPVTVSWNSGALTSGVHTFPAVLQSSGLYSLSSVVTVPSSSLGTKTYTCNVDHKPSNTKVDKRVESKYGPPCPPCPAPEAAGGPSVFLFPPKPKDTLMISRTPEVTCVVVDVSQEDPEVQFNWYVDGVEVHNAKTKPREEQFNSTYRVVSVLTVLHQDWLNGKEYKCKVSNKGLPSSIEKTISKAKGQPREPQVYTLPPCQEEMTKNQVSLWCLVKGFYPSDIAVEWESNGQPENNYKTTPPVLDSDGSFFLYSRLTVDKSRWQEGNVFSCSVMHEALHNHYTQKSLSLSLGGGGSGGGGSEVQLVESGGGFVQAGESLTLSCTSSTLTFTPYRMAWYRQAPGKQRDLVADISSGDGRTTNYADFAKGRFTISRDNIKNTVFLRMTNLKPEDTAVYYCNTFVSFVGIARSWGQGTQVTVSS
chain: ESKYGPPCPPCPAPEAAGGPSVFLFPPKPKDTLMISRTPEVTCVVVDVSQEDPEVQFNWYVDGVEVHNAKTKPREEQFNSTYRVVSVLTVLHQDWLNGKEYKCKVSNKGLPSSIEKTISKAKGQPREPQVCTLPPSQEEMTKNQVSLSCAVKGFYPSDIAVEWESNGQPENNYKTTPPVLDSDGSFFLVSRLTVDKSRWQEGNVFSCSVMHEALHNRFTQKSLSLSL
light: DIVMTQSPDSLAVSLGERATINCKSSQSLLNSRTRKNYLAWYQQKPGQSPKLLIYWTSTRKSGVPDRFSGSGSGTDFTLTISSLQAEDVAVYYCKQSFILRTFGQGTKVEIK
notes: not shown: kappa light chain constant domain (CL)
Binding % [11]: 103%
Binding % [12]: 106%
Binding % [13]: 104%
Binding % [14]: 102%
Binding % [15]: 98.2%
Binding % [16]: 101%
Binding % [17]: 104%
Binding % [18]: 100%

Further lines, with some results ahead:

Absorbance value (450 nm, polyspecificity ELISA) [3]: 1.06
Absorbance value (450 nm, polyspecificity ELISA) [4]: 1.08
B3: EGFR-CD3 bispecific antibody 404 (bispecific antibody, human IgG4 S228P, kappa, F234A L235A)
chain: B1 chain with C253Y, S258C, S270W, A272L, V311Y, R339H, F340Y
heavy: B1 heavy with Y354C, C359S, W371S, L373A, Y412V, H440R, Y441F
light: B1 light
EC50 of tumor cell killing, MDA-MB-468 cells with human PBMC (E:T 10:1, 3 days, CCK8) [1]: 0.0158 pM
EC50 of tumor cell killing, NCI-H1573 cells with human PBMC (E:T 10:1, 3 days, CCK8) [1]: 6.94 pM
EC50 of tumor cell killing, NCI-H1650 cells with human PBMC (E:T 10:1, 3 days, CCK8) [1]: 67.7 pM
EC50 of tumor cell killing, NCI-H2228 cells with human PBMC (E:T 10:1, 3 days, CCK8) [1]: 73.4 pM
EC50 of tumor cell killing, SK-OV-3 cells with human PBMC (E:T 10:1, 3 days, CCK8) [1]: 9.95 pM
EC50 of tumor cell killing, MCF-7 cells with human PBMC (E:T 10:1, 3 days, CCK8) [2]: 84 pM
EC50 of tumor cell killing, N87 cells with human PBMC (E:T 10:1, 3 days, CCK8) [2]: 1470 pM
EC50 of tumor cell killing, NCI-H157 cells with human PBMC (E:T 10:1, 3 days, CCK8) [2]: 17700 pM
EC50 of tumor cell killing, NCI-H441 cells with human PBMC (E:T 10:1, 3 days, CCK8) [2]: 9.08 pM
BLI-Response (self-interaction signal) [7]: 0.062 nm

Kd [5]: 2650 pM
koff [5]: 0.000469 s⁻¹
kon [5]: 177000 M⁻¹ s⁻¹
Kd [6]: 2200 pM
koff [6]: 0.00238 s⁻¹
kon [6]: 1.08e+06 M⁻¹ s⁻¹
B4: EGFR-CD3 bispecific antibody 404 (bispecific antibody, human IgG4 S228P, kappa, F234A L235A)
chain: B1 chain with C253Y, S258C, S270W, A272L, V311Y, R339H, F340Y
heavy: B1 heavy with Y354C, C359S, W371S, L373A, Y412V, H440R, Y441F
light: B1 light
notes: VHH-knob chain assembled from VHH and knob-Fc with hinge

Absorbance value (450 nm, polyspecificity ELISA) [3]: 1.92
Absorbance value (450 nm, polyspecificity ELISA) [4]: 1.51
Kd [10]: 18000 pM
koff [10]: 0.00413 s⁻¹
kon [10]: 230000 M⁻¹ s⁻¹
B5: HER2-CD3 bispecific antibody 504 (bispecific antibody, human IgG4 S228P, kappa, F234A L235A)
chain: QVQLVQSGGGLVQAGGSLRLSCAASGRTFSSYAMAWFRQAPGKEREFVAAISWSGANIYVADSVKGRFTISRDNAKDTVYLQMNSLKPEDTAVYYCAVKLGFAPVEERQYDYWGQGTQVTVSSESKYGPPCPPCPAPEAAGGPSVFLFPPKPKDTLMISRTPEVTCVVVDVSQEDPEVQFNWYVDGVEVHNAKTKPREEQFNSTYRVVSVLTVLHQDWLNGKEYKCKVSNKGLPSSIEKTISKAKGQPREPQVYTLPPCQEEMTKNQVSLWCLVKGFYPSDIAVEWESNGQPENNYKTTPPVLDSDGSFFLYSRLTVDKSRWQEGNVFSCSVMHEALHNHYTQKSLSLSL
heavy: B1 heavy with Y354C, C359S, W371S, L373A, Y412V, H440R, Y441F
light: B1 light
EC50 of tumor cell killing, MDA-MB-468 cells with human PBMC (E:T 10:1, 3 days, CCK8) [8]: 332 pM
EC50 of tumor cell killing, NCI-H1573 cells with human PBMC (E:T 10:1, 3 days, CCK8) [8]: 37.8 pM
EC50 of tumor cell killing, NCI-H1650 cells with human PBMC (E:T 10:1, 3 days, CCK8) [8]: 1620 pM
EC50 of tumor cell killing, NCI-H2228 cells with human PBMC (E:T 10:1, 3 days, CCK8) [8]: 2430 pM
EC50 of tumor cell killing, SK-OV-3 cells with human PBMC (E:T 10:1, 3 days, CCK8) [8]: 10 pM
EC50 of tumor cell killing, MCF-7 cells with human PBMC (E:T 10:1, 3 days, CCK8) [9]: 1220 pM
EC50 of tumor cell killing, MDA-MB-453 cells with human PBMC (E:T 10:1, 3 days, CCK8) [9]: 4060 pM
EC50 of tumor cell killing, N87 cells with human PBMC (E:T 10:1, 3 days, CCK8) [9]: 1290 pM
EC50 of tumor cell killing, NCI-H157 cells with human PBMC (E:T 10:1, 3 days, CCK8) [9]: 10800 pM
EC50 of tumor cell killing, NCI-H441 cells with human PBMC (E:T 10:1, 3 days, CCK8) [9]: 119 pM
